US20240132615A1 (ICHNOS SCIENCES, published 2024)

Assays:
[1] = target: T1, Biotinylated Human CD38 Protein, Avitag, His Tag (Acrobiosystems CD8-H82E7) (human, UniProt P28907 43-300, biotinylated); assay: SPR, Fab as analyte, immobilised biotinylated human CD38;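 further: biacore T200 at 25 °C, single-cycle kinetics with Fab from 7.8 to 2000 nM, 3 min association then 5 min dissociation, fitted with a 1:1 Langmuir model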
T1 construct: bought protein; also called biotinylated recombinant human CD38 protein; human CD38-avi-his
Experimental: (§1) Surface plasmon resonance (SPR) was used to measure the binding affinities of the Fab fragments for human and cynomolgus monkey CD38. Affinities were measured on a Biacore T200 instrument (Cytiva Life Sciences) at 25° C. and analyzed with the Biacore T200 Evaluation Software (v3.1).
(§2) The affinities to human and cynomolgus monkey CD38 were assessed by immobilizing CD38 and using Fab fragments as analyte. […] Fab fragments were injected in single cycle kinetic at different concentrations ranging from 7.8 to 2000 nM, in HBS-EP+ buffer (Cytiva Life Sciences, catalog NO: BR100669) at a flow rate of 30 μl/min for 3 min on flow-path 1 and 2 (flow-path 1 being used as reference). Dissociation was monitored for 5 min. […] Experimental data were processed using the 1:1 Langmuir kinetic fitting model.

[2] = target: T2, recombinant cynomolgus monkey CD38-ECD-C-his protein (cynomolgus monkey, UniProt Q5VAN0 45-301); assay: SPR, Fab as analyte, captured cynomolgus CD38-his
T2 construct: made in house; Q5VAN0 residues 43-301 (residue 44 deleted) with C-terminal 6-His; also called cynomolgus monkey CD38-C-His; recombinant cynomolgus monkey CD38 protein
Experimental: as §1, §2

B1: Anti-CD38-UCP03-B6 Fab (Fab, V domains shown)
VH: QVQLVQSGAEVKKPGSSVKVSCKASGGHISNSAINWVRQAPGQGLEWMGRVIPVIDDAYYAQKFQGRVTITADESTSTAYMELSSLRSEDTAVYYCARSRGYYGSFYFDIWGQGTLVTVSS
VL: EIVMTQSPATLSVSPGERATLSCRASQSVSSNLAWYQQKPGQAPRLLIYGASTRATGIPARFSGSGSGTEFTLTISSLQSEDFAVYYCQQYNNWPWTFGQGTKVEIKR
notes: Fab
[1]
  Kd: 225 nM
[2]
  Kd: 829 nM

B2: Anti-CD38-UCP03-H5 Fab (Fab, V domains shown)
VH: QVQLVQSGAEVKKPGSSVKVSCKASGGLFSFYAISWVRQAPGQGLEWMGGIIPFFGEPQYAQKFQGRVTITADESTSTAYMELSSLRSEDTAVYYCARGSYRFDVWGQGTLVTVSA
VL: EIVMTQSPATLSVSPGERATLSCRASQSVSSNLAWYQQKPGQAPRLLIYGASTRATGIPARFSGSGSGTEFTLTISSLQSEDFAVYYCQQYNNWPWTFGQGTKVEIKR
notes: Fab
[1]
  Kd: 142 nM
[2]
  Kd: 11 nM

B3: Anti-CD38-UCP03-A6 Fab (Fab, V domains shown)
VH: QVQLVQSGAEVKKPGSSVKVSCKASGGDFSLYAISWVRQAPGQGLEWMGGIIPLLGEPVYAQKFQGRVTITADESTSTAYMELSSLRSEDTAVYYCARGHRVYSSSPFDYWGQGTLVTVSS
VL: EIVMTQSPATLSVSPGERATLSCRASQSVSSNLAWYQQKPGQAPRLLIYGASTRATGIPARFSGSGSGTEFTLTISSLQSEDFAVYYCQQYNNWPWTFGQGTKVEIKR
notes: Fab
[1]
  Kd: 410 nM
[2]
  Kd: 525 nM

B4: Anti-CD38-UCP02-F6 Fab (Fab, V domains shown)
VH: EVQLLESGGGLVQPGGSLRLSCAASGFTFSFYDMSWVRQAPGKGLEWVSAVSLYGDETYYADSVKGRFTISRDNSKNTLYLQMNSLRAEDTAVYYCAREPVSYDYYGSYFDYWGQGTLVTVSS
VL: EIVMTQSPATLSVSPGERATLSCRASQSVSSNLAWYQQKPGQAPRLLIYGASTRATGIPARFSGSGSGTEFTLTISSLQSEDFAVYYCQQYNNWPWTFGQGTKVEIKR
notes: Fab
[1]
  Kd: 389 nM

B5: Anti-CD38-UCP01-H1 Fab (Fab, V domains shown)
VH: QVQLVQSGAEVKKPGSSVKVSCKASGDFFSGYAINWVRQAPGQGLEWMGRIIPLLGDTYYAQKFQGRVTITADESTSTAYMELSSLRSEDTAVYYCARSAAGWFAYWGQGTLVTVSS
VL: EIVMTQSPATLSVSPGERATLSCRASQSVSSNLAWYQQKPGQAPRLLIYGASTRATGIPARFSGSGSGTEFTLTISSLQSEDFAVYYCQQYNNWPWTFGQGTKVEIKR
notes: Fab
[1]
  Kd: 437 nM
[2]
  Kd: 352 nM

B6: Anti-CD38-UCP01-B1 Fab (Fab, V domains shown)
VH: QVQLVQSGAEVKKPGSSVKVSCKASGGDFDQYYISWVRQAPGQGLEWMGRIIPTLGDSQYAQKFQGRVTITADESTSTAYMELSSLRSEDTAVYYCARAVIVSPYYYIYVFDVWGQGTLVTVSS
VL: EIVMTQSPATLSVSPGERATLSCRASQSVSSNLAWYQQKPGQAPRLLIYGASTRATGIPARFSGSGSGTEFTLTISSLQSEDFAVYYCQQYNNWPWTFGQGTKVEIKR
notes: Fab
[1]
  Kd: 193 nM
[2]
  Kd: 102 nM

B7: Anti-CD38-UCP02-D1 Fab (Fab, V domains shown)
VH: QVQLVQSGAEVKKPGSSVKVSCKASGGDFDQYYISWVRQAPGQGLEWMGRIIPTLGDSQYAQKFQGRVTITADESTSTAYMELSSLRSEDTAVYYCARAVIVSPYYYIYVFDVWGQGTLVTVSS
VL: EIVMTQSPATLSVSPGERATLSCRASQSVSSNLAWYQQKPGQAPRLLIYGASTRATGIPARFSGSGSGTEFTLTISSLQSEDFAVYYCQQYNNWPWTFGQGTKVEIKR
notes: Fab
[1]
  Kd: 133 nM
[2]
  Kd: 78 nM

B8: Anti-CD38-UCP02-F5 Fab (Fab, V domains shown)
VH: QVQLVQSGAEVKKPGSSVKVSCKASGGVFSYYTISWVRQAPGQGLEWMGRIIPSLGATHYAQKFQGRVTITADESTSTAYMELSSLRSEDTAVYYCARSDSFYYAYYMDLWGQGTLVTVSS
VL: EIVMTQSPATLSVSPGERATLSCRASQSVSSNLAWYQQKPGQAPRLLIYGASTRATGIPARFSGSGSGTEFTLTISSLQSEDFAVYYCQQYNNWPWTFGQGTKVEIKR
notes: Fab
[1]
  Kd: 71.1 nM
[2]
  Kd: 55.2 nM

B9: Anti-CD38-UCP02-B7 Fab (Fab, V domains shown)
VH: EVQLVESGGGLVKPGGSLRLSCAASGFSFNEAWMTWVRQAPGKGLEWVGRIKSYSDGGYTGYAAPVKGRFTISRDDSKNTLYLQMNSLKTEDTAVYYCARSPGIPYHYFDVWGQGTLVTVSS
VL: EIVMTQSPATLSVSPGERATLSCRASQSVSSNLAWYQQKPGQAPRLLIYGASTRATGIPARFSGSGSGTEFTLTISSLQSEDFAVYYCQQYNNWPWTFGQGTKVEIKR
notes: Fab
[1]
  Kd: 1710 nM

B10: Anti-CD38-UCP01-F1 Fab (Fab, V domains shown)
VH: QVQLVQSGAEVKKPGSSVKVSCKASGGVFSLYTITWVRQAPGQGLEWMGSIIPLLGDPEYAQKFQGRVTITADESTSTAYMELSSLRSEDTAVYYCARYPYPYGSKYFDIWGQGTLVTVSS
VL: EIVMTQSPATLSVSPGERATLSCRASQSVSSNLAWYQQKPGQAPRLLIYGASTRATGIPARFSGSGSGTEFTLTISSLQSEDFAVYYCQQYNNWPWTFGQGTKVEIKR
notes: Fab
[1]
  Kd: 429 nM
[2]
  Kd: 393 nM

B11: Anti-CD38-UCP02-H1 Fab (Fab, V domains shown)
VH: QVQLVQSGAEVKKPGSSVKVSCKASGDKFNTYAISWVRQAPGQGLEWMGGITPRYDYAHYAQKFQGRVTITADESTSTAYMELSSLRSEDTAVYYCARSWGFRAGYLDYWGQGTLVTVSS
VL: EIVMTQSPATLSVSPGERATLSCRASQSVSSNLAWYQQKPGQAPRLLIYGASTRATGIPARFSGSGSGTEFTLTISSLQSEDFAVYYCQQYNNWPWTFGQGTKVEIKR
notes: Fab
[1]
  Kd: 154 nM
[2]
  Kd: 2.7 nM

B12: Anti-CD38-UCP03-E3 Fab (Fab, V domains shown)
VH: QVQLVQSGAEVKKPGSSVKVSCKASGGSFSIYAISWVRQAPGQGLEWMGGIIPNSGDTDYAQKFQGRVTITADESTSTAYMELSSLRSEDTAVYYCARGPYDSYGESYFDYWGQGTLVTVSS
VL: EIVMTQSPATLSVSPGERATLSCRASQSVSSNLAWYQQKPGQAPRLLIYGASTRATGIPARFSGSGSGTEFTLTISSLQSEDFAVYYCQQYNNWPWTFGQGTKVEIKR
notes: Fab
[1]
  Kd: 300 nM
[2]
  Kd: 195 nM

B13: Anti-CD38-UCP01-C2 Fab (Fab, V domains shown)
VH: QVQLVQSGAEVKKPGSSVKVSCKASGGYLGIYAISWVRQAPGQGLEWMGRIIPILGEADYAQKFQGRVTITADESTSTAYMELSSLRSEDTAVYYCARGGVWWDYWGQGTLVTVSS
VL: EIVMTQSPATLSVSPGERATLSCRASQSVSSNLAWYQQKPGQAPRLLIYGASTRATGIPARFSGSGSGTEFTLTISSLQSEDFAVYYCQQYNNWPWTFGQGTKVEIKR
notes: Fab
[1]
  Kd: 85.3 nM
[2]
  Kd: 53.5 nM

B14: Anti-CD38-UCP01-E2 FAB (Fab, V domains shown)
VH: QVQLVQSGAEVKKPGSSVKVSCKASGGSFSNYAIGWVRQAPGQGLEWMGRIIPVFGSAHYAQKFQGRVTITADESTSTAYMELSSLRSEDTAVYYCARGLGYYLYSSYYFDIWGQGTLVTVSS
VL: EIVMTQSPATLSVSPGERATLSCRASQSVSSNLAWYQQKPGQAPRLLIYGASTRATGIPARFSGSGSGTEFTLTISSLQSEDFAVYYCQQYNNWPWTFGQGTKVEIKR
notes: Fab; also called anti-CD38-E2; anti-CD38-E2 Fab
[1]
  Kd: 110 nM
[2]
  Kd: 89 nM

B15: Anti-CD38-UCP02-D5 Fab (Fab, V domains shown)
VH: QVQLVQSGAEVKKPGSSVKVSCKASGGIFSVHAIHWVRQAPGQGLEWMGEIIPVIGEADYAQKFQGRVTITADESTSTAYMELSSLRSEDTAVYYCAREQYYYALGGGFDYWGQGTLVTVSS
VL: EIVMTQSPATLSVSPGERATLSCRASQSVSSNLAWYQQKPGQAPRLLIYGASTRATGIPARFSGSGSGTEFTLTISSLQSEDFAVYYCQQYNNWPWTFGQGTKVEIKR
notes: Fab
[1]
  Kd: 192 nM
[2]
  Kd: 33.5 nM

B16: Anti-CD38-UCP03-H2 Fab (Fab, V domains shown)
VH: QVQLVQSGAEVKKPGSSVKVSCKASGGEFSIYVISWVRQAPGQGLEWMGRVIPSTGDTNYAQKFQGRVTITADESTSTAYMELSSLRSEDTAVYYCARGKAYYSGWLAIWGQGTLVTVSS
VL: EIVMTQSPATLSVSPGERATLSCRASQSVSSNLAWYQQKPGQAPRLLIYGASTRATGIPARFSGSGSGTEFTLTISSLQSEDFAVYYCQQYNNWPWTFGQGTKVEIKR
notes: Fab
[1]
  Kd: 1850 nM
[2]
  Kd: 672 nM

B17: Anti-CD38-UCP02-E5 Fab (Fab, V domains shown)
VH: QVQLVQSGAEVKKPGSSVKVSCKASGGGFRHYFISWVRQAPGQGLEWMGGIIPAAATPYYAQKFQGRVTITADESTSTAYMELSSLRSEDTAVYYCARGYWHWFDYWGQGTLVTVSS
VL: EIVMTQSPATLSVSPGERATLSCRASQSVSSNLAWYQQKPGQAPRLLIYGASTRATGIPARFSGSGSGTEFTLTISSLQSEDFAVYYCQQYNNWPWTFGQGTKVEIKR
notes: Fab
[1]
  Kd: 0.03 nM

B18: Anti-CD38-UCP01-D1 Fab (Fab, V domains shown)
VH: QVQLVQSGAEVKKPGSSVKVSCKASGGIFNGYLISWVRQAPGQGLEWMGGIIPVNGLADYAQKFQGRVTITADESTSTAYMELSSLRSEDTAVYYCARTIGRYIIAFDYWGQGTLVTVSS
VL: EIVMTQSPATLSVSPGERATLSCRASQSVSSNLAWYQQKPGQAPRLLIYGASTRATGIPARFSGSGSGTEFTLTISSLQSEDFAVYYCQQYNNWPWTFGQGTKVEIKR
notes: Fab
[1]
  Kd: 666 nM
[2]
  binding result: no binding

B19: Anti-CD38-UCP01-G1 Fab (Fab, V domains shown)
VH: QVQLVQSGAEVKKPGSSVKVSCKASGGGFSKYFITWVRQAPGQGLEWMGGVIPKIGYTSYAQKFQGRVTITADESTSTAYMELSSLRSEDTAVYYCARGSDDYASYSPLDSWGQGTLVTVSS
VL: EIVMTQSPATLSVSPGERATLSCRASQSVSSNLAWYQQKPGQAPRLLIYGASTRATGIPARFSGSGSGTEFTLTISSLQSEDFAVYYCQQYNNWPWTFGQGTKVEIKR
notes: Fab
[1]
  Kd: 1120 nM
[2]
  Kd: 283 nM

B20: Anti-CD38-UCP02-F2 Fab (Fab, V domains shown)
VH: QVQLVQSGAEVKKPGSSVKVSCKASGDVFSLLAIGWVRQAPGQGLEWMGRIIPSLDATHYAQKFQGRVTITADESTSTAYMELSSLRSEDTAVYYCARGRDVLRSYYFDIWGQGTLVTVSS
VL: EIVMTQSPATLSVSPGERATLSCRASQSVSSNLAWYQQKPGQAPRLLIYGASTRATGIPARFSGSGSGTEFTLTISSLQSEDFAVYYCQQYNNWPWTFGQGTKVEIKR
notes: Fab
[1]
  Kd: 14.2 nM
[2]
  Kd: 14 nM

B21: Anti-CD38-UCP03-C3 Fab (Fab, V domains shown)
VH: QVQLVQSGAEVKKPGSSVKVSCKASGGKFSNYAISWVRQAPGQGLEWMGRIIPQIGDAAYAQKFQGRVTITADESTSTAYMELSSLRSEDTAVYYCARASFLYYSYYFDYWGQGTLVTVSS
VL: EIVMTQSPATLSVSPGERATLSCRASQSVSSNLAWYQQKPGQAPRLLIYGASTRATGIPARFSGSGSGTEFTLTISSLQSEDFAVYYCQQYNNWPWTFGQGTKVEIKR
notes: Fab
[1]
  Kd: 117 nM
[2]
  Kd: 465 nM

B22: Anti-CD38-UCP03-C2 Fab (Fab, V domains shown)
VH: QVQLVQSGAEVKKPGSSVKVSCKASGGTFSNYAISWVRQAPGQGLEWMGGIIPAFGDAGYAQKFQGRVTITADESTSTAYMELSSLRSEDTAVYYCARGRVLYYSYYFDYWGQGTLVTVSS
VL: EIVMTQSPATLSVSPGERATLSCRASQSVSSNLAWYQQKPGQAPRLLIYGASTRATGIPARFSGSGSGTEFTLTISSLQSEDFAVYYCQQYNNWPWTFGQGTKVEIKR
notes: Fab
[1]
  Kd: 1390 nM
[2]
  Kd: 628 nM

B23: Anti-CD38-UCP02-C3 Fab (Fab, V domains shown)
VH: QVQLVQSGAEVKKPGSSVKVSCKASGDYFNNYAINWVRQAPGQGLEWMGRIIPFLDDANYAQKFQGRVTITADESTSTAYMELSSLRSEDTAVYYCARATSPLYSYYFDYWGQGTLVTVSS
VL: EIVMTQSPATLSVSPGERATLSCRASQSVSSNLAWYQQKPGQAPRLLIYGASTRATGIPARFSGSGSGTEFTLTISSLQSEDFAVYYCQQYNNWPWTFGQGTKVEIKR
notes: Fab
[1]
  Kd: 305 nM
[2]
  Kd: 188 nM
